Earlier results as cited in article PMC10136230.

Biological target: AGE-albumin (UniProt P02768)
Test: 125I-labeled ligand binding

Kd: 0.2 µM
Substance: RAGE (from UniProt Q15109)
